{"source": "patent EP4674868A1", "about": "(Jiangsu Hengrui Pharmaceuticals Co., Ltd., dated 2026)", "binders": {"B1": {"name": "MP0310 (FAP/4-1BB bispecific antibody molecule, control) (other)", "chain": "GSDLGKKLLEAARAGQDDEVRELLKAGADVNAKDYFSHTPLHLAARNGHLKIVEVLLKAGADVNAKDFAGKTPLHLAAADGHLEIVEVLLKAGADVNAQDIFGKTPADIAADAGHEDIAEVLQKAAGSPTPTPTTPTPTPTTPTPTPTGSDLGKKLLEAARAGQDDEVRELLKAGADVNAKDVLGWTPLHLAAFEGHLEIVEVLLKAGADVNAKDKKGWTPLQLAARTGHLEIVEVLLKAGADVNAKDHIGATPLHLAAWQGHPEIVEVLLKAGADVNAQDKSGKTPADLAADAGHEDIAEVLQKAAGSPTPTPTTPTPTPTTPTPTPTGSDLGQKLLKAAQEGQDDEVRELLKAGADVNAKDLRGITPLHVAAWQGHLEIVEVLLKAGADVNAKDSKGETPLHLAAFRGHLEIVEVLLKAGADVNAQDQQGETPADLAALAGHVDIAEVLQKAAGSPTPTPTTPTPTPTTPTPTPTGSDLGQKLLKAAQEGQDDEVRELLKAGADVNAKDLRGITPLHVAAWQGHLEIVEVLLKAGADVNAKDSKGETPLHLAAFRGHLEIVEVLLKAGADVNAQDQQGETPADLAALAGHVDIAEVLQKAAGSPTPTPTTPTPTPTTPTPTPTGSDLGKKLLEAARAGQDDEVRELLKAGADVNAKDYFSHTPLHLAARNGHLKIVEVLLKAGADVNAKDFAGKTPLHLAAADGHLEIVEVLLKAGADVNAQDIFGKTPADIAADAGHEDIAEVLQKAAHHHHHH"}, "B2": {"name": "C5_V2-YTIQ linked to human IgG1-Fc (Fc fusion)", "chain": "QVQLVESGGGLVQPGGSLRLSCSASGFTFSSYAMSWVRQAPGKGLEWVSDINSGGQSTFYADSVKGRFTISRDNAKNTLYLQMNSLRAEDTAVYYCAKHPLTYTIATMNDYDYWGQGTQVTVSSEPKSADKTHTCPPCPAPELLGGPSVFLFPPKPKDTLMISRTPEVTCVVVDVEHEDPEVKFNWYVDGVEVHNAKTKPREEQYNSTYRVVSVLTVLHQDWLNGKEYKCKVSSKAFPAPIEKTISKAKGQPREPQVYTLPPSRDELTKNQVSLTCLVKGFYPSDIAVEWESNGQPENNYKTTPPVLDSDGSFFLYSKLTVDKSRWQQGNVFSCSVMHEALHNHYTQKSLSLSPGK"}, "B3": {"name": "humanized anti-4-1BB nanobody C5_V3 linked to human IgG1-Fc (Fc fusion)", "chain": "B2 chain with Q56E, A61E, R87K, A88P, Y103F, Q119L"}, "B4": {"name": "humanized anti-4-1BB nanobody C5_V1 linked to human IgG1-Fc (Fc fusion)", "chain": "B2 chain with Q56E, A61E, K98R, Y103F, Q119L"}, "B5": {"name": "control anti-FAP antibody 28H1 (antibody, V domains shown)", "VH": "EVQLLESGGGLVQPGGSLRLSCAASGFTFSSHAMSWVRQAPGKGLEWVSAIWASGEQYYADSVKGRFTISRDNSKNTLYLQMNSLRAEDTAVYYCAKGWLGNFDYWGQGTLVTVSS", "VL": "EIVLTQSPGTLSLSPGERATLSCRASQSVSRSYLAWYQQKPGQAPRLLIIGASTRATGIPDRFSGSGSGTDFTLTISRLEPEDFAVYYCQQGQVIPPTFGQGTKVEIK"}}, "key": {"[1]": {"target": "human CD40 on the surface of HEK293 cells (HEK293-HuCD40) (human, UniProt P25942 21-277)", "assay": "cell-based or functional assay"}, "[2]": {"target": "T1, human 4-1BB on the surface of HEK293 cells (HEK293-Hu4-1BB) (human, UniProt Q07011 24-255)", "assay": "cell-based or functional assay"}, "[3]": {"target": "T1, human 4-1BB on the surface of HEK293 …", "assay": "FACS, HEK293-Hu4-1BB cells"}, "[4]": {"target": "T1, human 4-1BB on the surface of HEK293 …", "assay": "FACS, HEK293-Hu4-1BB cells", "remark": "listed apart in the source"}, "[5]": {"target": "T1, human 4-1BB on the surface of HEK293 …", "assay": "cell-based or functional assay", "remark": "listed apart in the source"}, "[6]": {"target": "T2, h-FAP-His (recombinant human fibroblast activation protein, Leu26-Asp760, His-tagged) (human, UniProt Q12884 26-760)", "T2 construct": "range 26-760; Bought protein with a His tag; also called human FAP-His protein; His-tagged FAP recombinant protein", "T2 sequence (Q12884 26-760 limits assumed)": "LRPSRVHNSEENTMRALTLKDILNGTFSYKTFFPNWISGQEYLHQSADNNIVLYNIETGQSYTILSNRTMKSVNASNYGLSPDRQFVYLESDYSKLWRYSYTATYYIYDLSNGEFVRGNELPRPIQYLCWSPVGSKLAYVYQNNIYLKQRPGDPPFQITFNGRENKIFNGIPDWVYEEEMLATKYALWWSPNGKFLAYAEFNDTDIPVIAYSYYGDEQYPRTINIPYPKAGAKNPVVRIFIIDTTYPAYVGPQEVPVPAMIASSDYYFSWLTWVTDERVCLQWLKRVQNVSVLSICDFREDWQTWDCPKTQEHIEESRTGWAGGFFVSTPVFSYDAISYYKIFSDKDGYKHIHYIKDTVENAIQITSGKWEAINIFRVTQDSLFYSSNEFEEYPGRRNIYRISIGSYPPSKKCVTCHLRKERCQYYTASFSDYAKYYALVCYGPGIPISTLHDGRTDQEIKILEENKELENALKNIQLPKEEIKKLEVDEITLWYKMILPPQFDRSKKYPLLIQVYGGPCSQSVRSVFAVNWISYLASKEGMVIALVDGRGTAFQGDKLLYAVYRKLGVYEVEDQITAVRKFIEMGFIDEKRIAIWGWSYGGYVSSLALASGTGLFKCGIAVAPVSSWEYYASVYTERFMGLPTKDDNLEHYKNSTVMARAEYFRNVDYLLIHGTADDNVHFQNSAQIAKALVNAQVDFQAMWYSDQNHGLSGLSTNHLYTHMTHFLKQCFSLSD", "assay": "SPR, antibody captured by anti-human IgG (Fc) on CM5 chip, h-FAP-His as analyte"}}, "note": "Substitutions are numbered along the chain they refer to. Read-outs that look alike come from different tables or passages of the source."}
{"binder": "B1", "values": [{"measurement": "CD40/NF-κB reporter (HEK-Blue CD40L), 4-1BB-crosslinked, Fold change in Emax", "setting": "[1]", "value": 1.01, "unit": "fold"}, {"measurement": "CD40/NF-κB reporter (HEK-Blue CD40L), FAP-crosslinked, Fold change in Emax", "setting": "[1]", "value": 0.99, "unit": "fold"}, {"measurement": "CD40/NF-κB reporter (HEK-Blue CD40L), uncrosslinked, Fold change in Emax", "setting": "[1]", "value": 1.03, "unit": "fold"}, {"measurement": "4-1BB/NF-κB luciferase reporter, CD40-crosslinked, Fold change in Emax", "setting": "[2]", "value": 1.11, "unit": "fold"}, {"measurement": "4-1BB/NF-κB luciferase reporter, FAP-crosslinked, EC50", "setting": "[2]", "value": 0.02, "unit": "nM"}, {"measurement": "4-1BB/NF-κB luciferase reporter, FAP-crosslinked, Fold change in Emax", "setting": "[2]", "value": 13.8, "unit": "fold"}, {"measurement": "4-1BB/NF-κB luciferase reporter, uncrosslinked, Fold change in Emax", "setting": "[2]", "value": 1.01, "unit": "fold"}]}
{"binder": "B2", "values": [{"measurement": "EC50", "setting": "[3]", "value": 0.7, "unit": "nM"}, {"measurement": "Maximum fluorescence value", "setting": "[3]", "value": 51700}]}
{"binder": "B3", "values": [{"measurement": "EC50", "setting": "[4]", "value": 1.65, "unit": "nM"}]}
{"binder": "B4", "values": [{"measurement": "EC50", "setting": "[4]", "value": 3.79, "unit": "nM"}, {"measurement": "Maximum fluorescence value", "setting": "[4]", "value": 1040}, {"measurement": "Activation of HEK293-4-1BB cells (NF-κB reporter), Fold change in Emax", "setting": "[5]", "value": 1.14, "unit": "fold"}, {"measurement": "FcγRIIb-mediated activation of HEK293-4-1BB cells (NF-κB reporter), Fold change in Emax", "setting": "[5]", "value": 2.28, "unit": "fold"}]}
{"binder": "B5", "values": [{"measurement": "Kd", "setting": "[6]", "value": 1.31, "unit": "nM"}, {"measurement": "Ratio of KD of 28H1 to KD of test antibody", "setting": "[6]", "value": 1}, {"measurement": "Ratio of Kd of 28H1 to Kd of test antibody", "setting": "[6]", "value": 1}, {"measurement": "koff", "setting": "[6]", "value": 0.000255, "unit": "s⁻¹"}, {"measurement": "kon", "setting": "[6]", "value": 195000, "unit": "M⁻¹ s⁻¹"}]}
